Laboratory results taken from article PMC8231982.
pKd: −log10 of the molar value.

Tests used:
[1] = target: HA H3 top domain (not stated (Figure 2 shows HA of influenza A virus X-31)) (UniProt P03437); assay: ELISA
[2] = target: HIV-1 gp120 monomer, strain HxBc2 (HIV-1, strain HxBc2) (UniProt P04578); assay: SPR

Question: “SUMO-CVN2L0 fusion protein (designed binder)” was tested. Which pKd [1] did it give?
Answer: The pKd was 6.26.

Question: “CVN2L0, engineered linker-free domain-swapped dimer of cyanovirin-N (designed binder)” was tested. Which pKd [2] did it give?
Answer: Its pKd is 7.31.
